Experimental data from the domain aggregation screens of Martell et al. (2025).

Assay: soluble fraction after stress (log2 fold change); higher = more stays soluble; pooled small domains, quantitative proteomics
Conditions: stress: 50 degC
Method in brief: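 Each library was heated to 50°C as a stress step. The libraries, made up of small protein domains, were pooled and analysed at high throughput by quantitative proteomics. The reported value is the base-two logarithm of the fold change in each protein's soluble amount after stress, taken as a measure of aggregation propensity. The higher the value, the more protein stays in solution.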

Sequence | soluble fraction (log2)
HMNLGNLAYESKVTKQVLNMIRPLHPEYSSDDITRAVKEILSEEGSRQRRVDEIARGALDVLMGNPR | 0.216
HMDDPTVILFDPKNGQRKIVKWKAGLTLYSARRSAGISSAAEATIQRAGKSLSGRTATALEPGDVIRW | -0.953
HMKEADVRKNEILDAAGILFSEKGYDNTSVTDIMNAVGFAKGTLYHHFKSKEDIMDALIKRQTD | 0.219
HMFKNWMPFDEARIFVRKLKFNSHDEFRKYLKANEINIPSKPWSTYKGKGWVSIGDFLGTHR | -2.82
HMGAQRDFELQLIDVIRQNPGLTYKAYGEKLSVSQATVKRLVAKLKETGSIRREGSQRKGTWIITDD | -0.867
HMPKHHIESVIPENFAGERLDKVLAVLWGTFSRAQLTRWIRDGSLLLDGHKVKPNTKVDGSEKIVLQAEVA | -0.891
HMAVNQEFKNTINRIKYEYSLNQSQIADRLGVKKTYLSDMINGRVPYNETMNKKVNDVFPLPP | 0.11
HMYEENFSKIKNDISTIFKRHKISFTNNFISHLSSVFNTDSLTNKMELEKLDSFLINNKKVTENELLKFII | -0.025
HMASKTGTITATSLNVRSGAATTYSILGTLSNGKTVTIYEESNGWYKINYNGGYGWVSKTYVSTG | -0.435
HMSKKQEQALQSREKLLDAATALFAEHGYRDTSVQAIGEKAGVSRGSIFWHFGSKEGLLWAVVERAFTA | 0.265
HMTHFRTDERRREILSTIEADGRVSVSEIASRFDVSPVTIRSDLNYLAIQGKLKRVRGGAVLLDH | -0.76
HMRGLFTVYMVGEKASRVGELDEEMVYESRIGDVFALGATSWRIEEITHDRVLVSPAYGQPGRLPFWH | -2.14
HMKYTEEIFNILSRGGFISANSVSSTVKRYYDALEEDFTEYYDYYKGIGFYLEAGNGYYLFTR | -3.29
HMNVAELIEGHEAEIAEVLKEFSLLYLMRLADELGEMTKSSSGNGPFQVLKGLVYEEIARRG | -1.09
HMQTMTAGERREAILRELEQAQGPVSASALAKRFHVSRQAVVGDVAMLRALNSPIAATPRGYVLTR | -0.0845
HMRRSKQERQQAIKTLISNEQIQRQEDLVRKLNEAGWEVTQATISRDITEMQLVKVPLPTGGFAYAVM | 0.126
HMGSIGAMLSSPELYGKLATNPATRGFLSQPDFIAMLTDVQKNPDKFGSYMSDPRMMQVLSVALG | 0.118
HMLPYGDRRRHTDNTISRIRELAAALDDSGIADRLNQDGYVTPEGKPFTYAGVRWIRYKYDISGPYERN | -1.5
HMDEFTIILEDAGSQKIAVIKEVRVLNSSLGLKEAKDLVDATPATIMEKADKATADKAKAAFEAAGAKVTI | -0.22
HMDSALKDDLNAFVKKLDVESQTLFMRRYFLGESVSSLASRFEMSEDNVGVKLFRIRAKLKKYLTGKGYD | -2.28
HMTDSDTQDIDVGELRVGHFVFLDLSWIRHPFPLSSFKIQSAEQIKTIRSLGLRRIRYSPGRSGP | -1.18
HMGTHVVQEGEYLDLIIEKTIPGSPIRKDLLRKAFVKLNPSAFGGRGNPNYIFARKKLKVPSVEDLKAVIF | -0.0708
HMVSFSIDEALVSAVKGPRSANVMSIQRQFLVRLSVERDGRVTITGANSKSVQQAREAVEAAVEEAKLHP | -0.827
HMGRTGTVVVSPSLNVRTGPWGEIIGSLYNGNKVEIIGSSGDWYQISFGGKTAYVHSDYVVDGG | -0.51
HMDMPLIGTAIRGWGIISPAQQETLIKMSILTVEDLAAINDEGIKRIGMGGLDLKNKAKAWLLQLK | -0.751

Sequence | soluble fraction (log2)
HMVEFLMESTNGMYGIVKEGSSYYVQKGINESSLDYIGGMFMKDKNRFSSYSTALKRLELISGQET | -0.328
HMKSKNRLTKSYLDSIPGVGRKRKSILLRYFGSIDQIKRASSEDIANVPGIGKITSDLVYNYFNQ | -0.495
HMSAISSARKEKIIEYLTDHGSARSSEIAEYVDLRPSRVRDYLGELVREDIVVAEGANRNRTYRLK | 0.0293
HMVNYKEILRLAHEGYSQRQIATNIGNSRNTVSEVLDAAKAANIAWPPEETVTNEQLGAILFPNRH | 0.204
HMNEYSLVPDIYGMTYDDALSSLRNVGLDGRLALASTNEDLANADTRVVWQSKEAGSIIDKGSNVMFVID | 0.0609
HMGTKRWELPRRVQQMATQHGKSISTAAAEELVSRSGENTRMLDNDLVKLAQMVEAPQIELADVERWIVR | 0.221
HMGEPVNSPMPGTILRVEVTQGAAVKEGQLLVVLEAMKMENEILAPKDGTVAQVVVQKGSHVETGSPLIVL | -0.217
HMRGLVPEIVGTLEGEIRAGTLAVGQKLPTEAEIMARFDVSRTVVREALSRLQASDLVETRHGIGTFVSAR | -0.368
HMTTKEEAAYQAIRSAIIDGELKPGQSVTIRDLASRFDLGRTPITDAMKHLALDGWLETTTGVGTRV | -0.106
HMSDHSSLAGKEGVAVTPLRPAGTAEIDGKRMDVVTMGDYIKAGDHIKVVKVEGNRIIVAKN | 0.0433
HMGNPSGLPLPRFASTRSEPINVRVGPGQKYDIAWTYLKSGIPVEIIQEFDTWRKIRDFDGAEGWIHQNLL | -0.937
HMAEKNALWEEDAVYAADSSALARDGYDAIVRTDKGGKKGYLVVGTGGRERFMPLQTLVMLGYLKK | -0.065
HMTGYVMIRVDGLSLEKFLNMAAEAGVRVSDVRRASYTVLYAVVSPRDLKKLQSVAPEKYTVTVR | -0.664
HMGSDAFDISKLNLVGKTKESAESLLKENGFSVDTKEEASDTAAKGTVISYSPTKPKNGERVTLTVSSGK | 0.337
HMKIEDSNTIKLKANQAYKTHYYSEAIKLYDELLTKYEPNSEAIKLNLAHAHFKAKGFAAASKLYT | 0.144
HMSNPPIRIGKKALHELLTTWLSLLSRDGVAYLVVQKNLGADSLTAWLRDQGFPSEKIASKKGFRIIEVH | -0.245
HMGQLVYPAGVYDVNKSYITDSNSAPYVLDKTDNNYYVLNTQMTWKGTEQDNKTPSQSYEESGGSVWLLFD | -0.235
HMTLDEDYFYYTLKAKEGYYRLYKKLGVDRKIIDSLNPNLKEMGLQVGMVIRVPKSQTSDLSVKNSLLVE | -1.4
HMEKTEQMQVILDYIARYGEINNEKVQEILGVKRTRAYTILKQMVENGFVTTNGRGEEKKYYSIR | -0.336
HMTKGDRIKARREELGLTQTDLAEAISSTKQNIYKYENNIISNIPSDKVEAIAEVLKISPAYLMGWGDE | 0.0302
HMSVFTDIYHQADHETKLMLIHEIKIVGDEKEFRLLKSIIDSTSNDLSKEANDALNAIKIRLALSK | -2.49
HMPYSPTPGSAPARLIAHLQEHGDSVNRTAIAELLQVDRKNVHNYLARAVTHGLLLRHGGGAYSLP | 0.086
HMQISDSSLIAKTVATVILENPEAVSDYLGGKHSVVRFMVGQIMKKTQGKANPKMATEMLETALNDL | -1.13
HMSKNYYEILGVTPDVELSQLKAVYRRLVRKYHPDINPDGELIFKDITEAYEVLSDEKQRKQYDMINGF | -0.0246
HMVQVPSLVGISEIEAKTLLTQAGFFVKIVEVFDANQPVGIVLAQAPSAGESRIIGSPVTITVNKAQ | -0.867

Sequence | soluble fraction (log2)
HMKYSYAELTKLQEQIAQDRNAPLTVPNALGIGLDERNNVIEITVNIADEAAAKAYYLQKYGDRISLKTTD | 0.117
HMGISNEETFLLEKMSSGRRYSRKELDNLMGFEKTKTIRLLGSLINKGLVVAEGVNRARRYIR | -1.12
HMRYVVQVATFSSKNNAIRAADDLAGFVVVSNGYYRVRTGPYADRGEANAALAKARKAGYTDAFVDTS | -0.798
HMDKPIFTLRENEVLYWASMGKTYAEIATIVGISVRTVKFHMGNVVSKLGVSNARQAIRLGVELDLITPMQ | -2
HMFPELNAEETQVVQLLQKQTEGMQVNSLVVESNIPITRMSGILFELELKGIIRNYAGGVYKL | -2.16
HMQLDDDQKEELILKLIDSLDTTKKGAPLTELAREAAKSNIGESELEEITTSLLDKGLVYEPTIGKMKR | 0.216
HMRKTLASTAYDSIKAGIVSGEINNNLLLSENTLAKILNMSRTPIREAIKRLEAESYLKSVDGVGLIVQE | -0.211
HMETGGLAQEAERELALLQEQIAHHEALYRKGTPEISDGAFDELFDRYQELADSLGVPADERIDRA | -0.0378
HMDDISLEEIKYISSKLETKVNEIEELLVRYYDGETNEAEEKELKEFFAQADVPAHLLAEKRLFMQLASQ | -0.0772
HMVNTYILNNKEYPIEIIRKNNKNTYLRVKEGKIIVTTNYLTSSFTINKLIKDNTSFINKALLKEN | -0.595
HMNDNQNKQMLWELLKDNRAFDNFDNKDYKTIIHLFNETVNTIDHRTPNLDLIKKNKIFIQDIMQKLSNL | -1.13
HMINIFKVKKAMEEIFASEWEDSPYTDQKISQILWSRGFSVSTGLVEKYRGQMGVPDANSRLNLN | -2.38
HMTNTWNNIVERNDLFFKKFTNTPFNGKIETYWPNGNLKETGIITDGKKDNLWEYYYENGNPKEVEF | -0.397
HMLNVNDVIARNVRAARERKKLTLDGAAELTGVSRSMLAQIEKGEVNPTISVVWKIANGFKVSFTSLVEPQ | -0.498
HMDAPIIRLLNSLVQRAVTTTASDIHIEPFEGETKVRMRIDGVIIDYVTLQRALHQPLIARIKIMSNLD | -0.202
HMGALTGQERRAEIMNILRQSTMPLSGAALGKQLGVSRQVVVQDIALLRQSGEEIYATNRGYVTG | -0.129
HMDSLNWVEKIINTLPEQQRLIIQMRDIEQYEFAEIAKILEMNETAIRVALSRARKTIREFMIKTH | -1.07
HMGKMTSTLGVHIAAYRKEHGETVAQFASRSGVSVSSIRRIESGISDPSADLVWKISRHMGMTMDDLFKKM | -3.87
HMNDSGIIGVVINDHEKYEGHVLEDGFISSSLSALSREIDVAGYFMMVKTVVYEGFFQELKGIGNV | -0.00726
HMYKSSRASKSEVNKFLKFIIQSLDKRGFLQPGHKRQSMIRNIENIFYRTNLSDQEIRILLGIFSTLNK | -0.62
HMAPLADQIVDLLKEHDGFLPLHDNSSPEDIRATVGTSKKAFKQAIGGLFREKRIVIGPTGIRLIS | -0.378
HMKSYTYNPNYLSDYNAYRLGIPLEALERLQLHRSTGRYVNSLSDFQSVTGISDSLKHSLSSSLRFPN | -0.876
HMDYYKILGLSTSATLDQIKKAFRQLAIEFHPDKNPNNPTAEDKFQRISEAYAVLSNPEKRAEYDRSY | -0.0923
HMFPATAPQLKAVHAILGKQGISDELDKLARVNEWLVGLNKEPVAAISELDKHTTSGLIDHLQGELNE | 0.282
HMAVTFPYTAYATDAVRLRERPSSSADVLAVIRKGDAVLVTGTDGNYAIVDYEGKRGYVVSSFIAT | -0.317
